Measured values reported in paper PMC6283879, “Structural assembly of the megadalton-sized receptor for intestinal vitamin B12 uptake and kidney protein reabsorption” (Nature Communications, 2018).

B1: N-terminal fragment of cubilin (residues 26–135) (domain or fragment, human, UniProt O60494 26-135, looked up)
chain: GELELQRQKRSINLQQPRMATERGNLVFLTGSAQNIEFRTGSLGKIKLNDEDLSECLHQIQKNKEDIIELKGSAIGLPQNISSQIYQLNSKLVDLERKFQGLQQTVDKKV
notes: The methods name 'human' before AMN only ('human AMN ... and the N-terminal fragment of cubilin'); Cloned into the NdeI site of multiple cloning site 2 of pACYCDuet-1; also called trimeric cubilin; source: also in E. coli lysate / His-tag column eluate with the AMN T41I mutant
B2: amnionless (AMN): S37A (protein)
parent chain: MGVLGRVLLWLQLCALTQAVSKLWVPNTDFDVAANWSQNRTPCAGGAVEFPADKMVSVLVQEGHAVSDMLLPLDGELVLASGAGFGVSDVGSHLDCGAGEPAVFRDSDRFSWHDPHLWRSGDEAPGLFFVDAERVPCRHDDVFFPPSASFRVGLGPGASPVRVRSISALGRTFTRDEDLAVFLASRAGRLRFHGPGALSVGPEDCADPSGCVCGNAEAQPWICAALLQPLGGRCPQAACHSALRPQGQCCDLCGAVVLLTHGPAFDLERYRARILDTFLGLPQYHGLQVAVSKVPRSSRLREADTEIQVVLVENGPETGGAGRLARALLADVAENGEALGVLEATMRESGAHVWGSSAAGLAGGVAAAVLLALLVLLVAPPLLRRAGRLRWRRHEAAAPAGAPLGFRNPVFDVTASEELPLPRRLSLVPKAAADSTSHSYFVNPLFAGAEAEA
B3: amnionless (AMN): S37A/T41I (protein)
parent chain: B2 parent chain

How the values were obtained:
[1] = target: the molecule itself; assay: crystal structure; AMN(20–357) and cubilin(26–135) co-expressed in E. coli and co-purified; crystals at 4 °C, sitting drop, 1.5 M magnesium sulphate, 0.1 M MES pH 5.5; 2.3 Å, SAD phasing
[2] = flow cytometry, cubilin surface expression, CHO K1; conditions: glycan lost; control: wild type AMN co-transfected with cubilin

Protein	stoichiometry N [1]	localisation_or_trafficking [2]
B1	3	
B2		no change
B3		no change
